Data reported in the nanobody polyreactivity screen of Harvey et al. (2022).

Assay: yeast display, Sf9 membrane polyspecificity reagent, FACS + sequencing; frameworks hold sequencing errors
How it was run: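 After 36–48 hours of galactose induction, yeast (Saccharomyces cerevisiae BJ5465) displaying a synthetic nanobody library were stained at 4 °C for 1 hour with 10% biotinylated, detergent-solubilized Sf9 membrane reagent. Streptavidin microbeads enriched the stained cells before FACS sorting into low and high (top ~1%) gates on anti-HA and streptavidin fluorescence. Each clone's polyreactivity label reflects its gate of origin.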

For “QVQLVESGGGLVQAGGSLRLTSAASGYIFEEYDMGCYRQAPGKERELVAAIRFSSASTTYADSVKGRFTISRDNAKNTVYLQMNSLKPEDTAVYYCAVKAGDVYSDYDYWGQGTQVTVSS”, the “polyreactivity (PSR sort gate)” value was “low polyreactivity”.

With “QVQLVESGGGLVQAGGSLRLSCAASGSNFPHYTMGWYRQAPAKERELVAAISNYGSSTYYADSVKGRFTISRDNAKNTVYLQMNSLKPEDTAVYYCNADDYGYSPGVNYWGQGTQVTVSS” the “polyreactivity (PSR sort gate)” value was “low polyreactivity”.

In the case of “QVQHVESGGGLVQAGGSLRLICAASGITFYFNAMGWYRQAPGKERELVAAISRPGGSTYYADSVKGRFTISRDNAKNTVYLQMNSLKPEDTAVYYCAAEAYFELSGGGLEYGYDYWGQGTQVTVSS”, the “polyreactivity (PSR sort gate)” value was “high polyreactivity”.

With “QVQLVESGGGLVQAGGTLRLSCAASGFTFSINAMGWSRQAPGKERELVAGISWSGGITYYADSVKGRFTISRDNAKNTVYLQMNSLKPEDTAVYYCNTDYGLTTPVVWDDYWGQGTQVTVSS” the “polyreactivity (PSR sort gate)” value was “low polyreactivity”.

In the case of “QVQILESGGGLVKAGGSLRLSCAASGYTFYANAMGWYRKAPGKEREFVASITWSGGSTYYADSVKGRFTISRDNAKNTVYLQMNSLKPEDTAVDYCAADVIGDLRWYRDEYLGQGTQVTVSS”, the “polyreactivity (PSR sort gate)” value was “low polyreactivity”.

With “QVQLVESGGGLVQAGGSLRLSCAASGRTFGYYAMGWYRQAPGKERELVAAISTRSGSTYYADSVKGRFTISRDNAKNTVYLQMNSLKPEDTAVYYCDADSYPDYDYWGQGTQVTVSS” the “polyreactivity (PSR sort gate)” value was “low polyreactivity”.

With “QVQLVESGGGLVQAGGSLRLSCAASGSIFAVYAMGWYRQAPGKERELVASISRTGTTNYADSVKGRFTISRDNAKNTVYLQMYSLKPEDTAVYYCAARPGSWYPSVPSYNYWGQGTQVTVSS” the “polyreactivity (PSR sort gate)” value was “low polyreactivity”.

For “QVQRVESGGGLVQAGGSLRLSCAASGSTLGYYTMGWYRQAPGKERELVAAIDWSGGSTYYADSVKGRFTISRDNAKNTGYLQMNSLKPEDTAVYYCNAEPWDPFYSPGRGGMDYWGQGTQVTVSS”, the “polyreactivity (PSR sort gate)” value was “low polyreactivity”.

For “QVQLVESAGGLVQAGGSLRLSCAASGYTISYANAMGWYRQAPGKERELVASISSTGGRTYYADSVKGRFTISRDNAKNTVYLQMNSLKPEDTAVYYCASRYWRYGYWGQGTQVTVSS”, the “polyreactivity (PSR sort gate)” value was “high polyreactivity”.

With “QVQLVESGGGLVQAGGSLRLSCAASGRTFQYYAMGWYRQAPGKERELVAAITWSGTSTYYADSVKGRFTISRDNAKNTVYLQMNSLKPEDTAVYYCNKYSPYITYDYDYWGQGTQVTVSS” the “polyreactivity (PSR sort gate)” value was “high polyreactivity”.

For “QVQLEESGGGLVQAGGSLRLSCPASGLTFDCYAMGWYRQAPGKERELVAAITSVGSTYYADSVKGRFTISRDNAKNTVYLQMTSLKPEDTAVYYCAVEGVIWCFWPYEYWGQGTQVTVSS”, the “polyreactivity (PSR sort gate)” value was “high polyreactivity”.

For “QVQLVESGGGLVQAGGSLRLSCAASGRIFDSNAMGWYRQAPGKERELVATISYRGGRTYYADSVKGRFTISRDNAKNTVYLQMNSLKPEDTAVYYCAVRYWVSGFRAGYYWGQGTQVTVSS”, the “polyreactivity (PSR sort gate)” value was “high polyreactivity”.

In the case of “QVQLQESGGGLVQAGGSLRLSCAASGSITHYIFMGWYRQAPGKEREFVAGIGYGGTTNYADSVKGRFTISRDNAINTVYLQMNSLKPEDTAMYYCAAREATEFYLYYWGQGTQVTVSS”, the “polyreactivity (PSR sort gate)” value was “low polyreactivity”.

In the case of “QVQQQESGGGLVQAGGSLRLSCAASGTIFQLTFMGRYRQAPGKERELVASIDYGGNTNYADSVKGRFTISRDNAKNNVYLQMNSLKPEDTAVYYCAASSDSWTTHPYWGQGTHVTVSS”, the “polyreactivity (PSR sort gate)” value was “low polyreactivity”.

With “QVQLVASGGGLVQAGGSLRLTCAASGSIFYAYAMGWSRQAPGKERELVASINSGGNTYYADSVKGRFTISRDNAKNTDYLQMNSLKAEATAVYYCAVDSKDNNDHWGQGTQVTVSS” the “polyreactivity (PSR sort gate)” value was “low polyreactivity”.

In the case of “QVQLVDSGGGLVQAGGSLRLSCAASGFSLSINAMGWYRQAPGKERELVDGISWSGGSTYYADSVKGRFTISRDNAKTTFYLQMNSLKTEDTAVYYCNADLFLFVYFGQYYWRTYNYWGQGTQVTVSS”, the “polyreactivity (PSR sort gate)” value was “low polyreactivity”.

For “QVKLEESGGGLVQAGGSLRLSCAASGSTFRAYTMGWYRQAPAKEREFVAAISRSGGSTFYADSVKGRFTISRDYAKNTVYLQMNSLKPEDNAVYYCAASYRYSASYYWGEGTQVTVSS”, the “polyreactivity (PSR sort gate)” value was “high polyreactivity”.

In the case of “QVHLVESGGGLDQAGGSLRLSSASSGRIIVRNAMGCYRQAPGKERELVADISSSGGRTYYADSVKGRFTISRDNAKNTVYLQMNSLKPEDTAVYYCAASSSNNEYDYWGQGTQETVSS”, the “polyreactivity (PSR sort gate)” value was “high polyreactivity”.

With “QVQLVESGGGLVQAGGSLRLSCAPSGSTFYPNAKGWYRQAPRKERELVAAISRSGGSTYYADSVKGRFTISRDNAKNTVYLQMNSLKPEDTAVYYCAADGRSPARYDYWGQGTQVTVSS” the “polyreactivity (PSR sort gate)” value was “low polyreactivity”.

For “QVQLVESGGGLVQAGGSLRLSCAASGRIFPYYAMGWYRQAPGKERELVAAITTRGGSTYYADSVKGRFTISRDNAKNTVYLQMNSLKPEDTAVYYCAAVTFGRMEYWGQGTQVTVSS”, the “polyreactivity (PSR sort gate)” value was “low polyreactivity”.

In the case of “QVQLVESGGGLVQAGGSLRLSCAASGSTFVTYAMGWYRQAPGKERELVAAISYSGGSTYADSVKGRFTISRDNAKNTVYLQMNSLKPEDTAVYYCNSDTSVDVRFDYWGQGTQVTVSS”, the “polyreactivity (PSR sort gate)” value was “low polyreactivity”.

With “QVQLVESGGGLVQAGGSLRLSCAASGRTFYVYTMGWYRQAPGKERELVAAITTGGSTNYADSVKGRFTISRDNAKNTVYLQMNSLKPEDTAVYYCAARVSTVFKRYYYWGQGTQVTVSS” the “polyreactivity (PSR sort gate)” value was “high polyreactivity”.

For “QVQLVESGGGLVQAGGSLRLSCAASGFTYRWYAMGWYRQAPGKETELVAAISWDGGSTYYADSVKGRFTISRDNAKNTVYLQMNSLKPEDTAVYFCATVKSLRYWWQNEYGYWGQGTQVTVSS”, the “polyreactivity (PSR sort gate)” value was “high polyreactivity”.

In the case of “QVQLVESGGGLVQAGGSLRLRFAASGSIFVRNALGWYRQAPGKERELVAAITYSGSRTYSADSVKGRFTISRDNAKNTVYLQMNSLKPEETAVYYCAKVRVLVDKWSTFYEYYYWGQGTQVTVSS”, the “polyreactivity (PSR sort gate)” value was “low polyreactivity”.

With “QVQLVESGRGLVQAGGSLRLSCAPSGLIFRYYAMGWYRQAPGKEREFVAAISGRGASTYYADSVKGRFTISRDNAKNTVYLQMNSLKPEDTAVYYCATYFPSAVVAFHMDYWGQGTQVTVST” the “polyreactivity (PSR sort gate)” value was “high polyreactivity”.

For “QVQLVESGGGLVQAGGSLRLSCAASGITFVDYVMGWYRQAPGKERELVAAISRGGSRTKYADSVKGRFTISRDNAKNTVYLQMNSLKPEDTAVYYCAAPWLVNHYYPSQEYDYWGQGTQVTVSS”, the “polyreactivity (PSR sort gate)” value was “high polyreactivity”.

With “QVQLVESGGGLVQAGGSLRLSCAASGIIFYDYAMGWYRQAPGKERELVAAISRSGGSTYYADSVKGRFTISRDNAKNTVYLQMNSLKPEDTAVYYCAKDRDFSSPPTESGFDYWGQGTQVTVSS” the “polyreactivity (PSR sort gate)” value was “low polyreactivity”.

For “QVQLVESGGGLVQAGGSLRLSCAASRYIFSRNAMGWYRQAPGKERELVAAISLRGGSTYFADSVKGRFTISRDNAKNTVYLQMNSLKPEDTAVYYCAAPLFSGYDYWGQGTQVTVSS”, the “polyreactivity (PSR sort gate)” value was “low polyreactivity”.

With “QVQLVESGGRLVQAGGSLSLSCASSGRIFWTYAMGLTRQAPGEERELVAAINSSDGTYYADSVKGRFTISRDNAKNTVYLQKNSLKPEDTAVYYCNADRDALVGYDYDYWGQGTQVTVSS” the “polyreactivity (PSR sort gate)” value was “low polyreactivity”.

For “QVQLVESGGGLVQAGGSLRLSCAASGIIFQAYAMGWYRQAPGKERELVAAISYSGGSTYYADSVKGRFTISRDNAKNTVYLQMNSLKPEDTAVYYCAATFYGYFDSVFSWGYYYWGQGTQVTVSS”, the “polyreactivity (PSR sort gate)” value was “low polyreactivity”.

With “QVQLVESGGGLVQAGGSLRLSCAASGSTLGYYGMGWYRQAPGKERELVAAISGRGTSTYYADSVKGRCTISRDNAKNTVYLQMNSLKPEDTAVYYCAAQLFRELYWGQGTQVTVSS” the “polyreactivity (PSR sort gate)” value was “high polyreactivity”.

For “QVQLVESGGGLVQAGGSLRLSCAASGFIFVDNAMGWYRQAPRQERELVASITRGGSTDYADSVKGRFTISRDNAKNTVYLQRNSLKPEDTAVYYCAASWHRPAPDEGMDYWGQGTQVTVSS”, the “polyreactivity (PSR sort gate)” value was “low polyreactivity”.

With “QVQLVESGGGLVQAGGNLRLSCAASGGIFYLYAMGWYRPAPGKERELVASINWRSATTYYADSVKGRFTISRDNAKNTVYLQMNSLKPEDTAVYYCNVQWYGGYDYWGQGSQVTVSS” the “polyreactivity (PSR sort gate)” value was “low polyreactivity”.

In the case of “QVQLVESGGGLVQAGGSLRLSCAASGFSFPYAMGGYRQAPGKERELVAGISWSGGSTYYADSVKGRFTISRDNAKNTVYLQMNSLKPEDTAVYNCNKYVQSGGTYDYWGQGTQVTVSS”, the “polyreactivity (PSR sort gate)” value was “low polyreactivity”.

With “QVQLVESGRGLVQAGGSLRLSCAASGRTLRIYAMGWYRQAPGKERELVAAITSSGRTNYADSVKGRFTISRDNAKNTVYLQMNSLKPEDTAVYYCAAVTPAVNYFRAASGYYYWGQGTQVTVSS” the “polyreactivity (PSR sort gate)” value was “low polyreactivity”.

With “QVQLVESGGGLVQAGGSLRLRCAASGFIFIFNAMGWYRQAPGKERELVAAIDTSDDSTYYADSVKGRFTISRDNAKNTVYLQMNSLKPEDTAVYYCAAEELSNYEYWGQGTQVTVSS” the “polyreactivity (PSR sort gate)” value was “low polyreactivity”.

With “QVQLVESGGGLVQAGGSLRLSCAASGSTFGWYAMGGYRQAPGKERELVAAISSGGSTYYADSVKGRFTISRDHAKYTVYLQMNSLKPEDTAVYYCAADIGYYYRYDYWGQGTQVTVSS” the “polyreactivity (PSR sort gate)” value was “low polyreactivity”.

In the case of “QVQLVESGGGLVQAGGSIRLTCAASGLIIGVYAKGWYRQAPGKERELVAAITDGGSTYYADSVKGRFTISRDNEQNTVSLQMNSVKPEDTAVYYCAREQGVNRNHDYWGQGTQVTVSS”, the “polyreactivity (PSR sort gate)” value was “low polyreactivity”.

With “QVQLVESGGGLVQAGGSLRLSCAASGIIVYYYAMGWYRPAPGKERELVAAISTSGTRTFYADSVKGRFTISRDNAKKTVYLQMNSLKPEDTAVYYCAARIYKPQRCTSLYRTSGYWGQGTQVTVSS” the “polyreactivity (PSR sort gate)” value was “high polyreactivity”.

For “QVQLVESGGVLVQAGGSLRLSCAASGRTFDSYAMGWYRQAPGKERELVAAISSRGTRTYYADSVKWRFTISRDNAKNTVYLQMNSLKPEDTAVYYCNAGGAYEYDYWGQGTQVTVSS”, the “polyreactivity (PSR sort gate)” value was “high polyreactivity”.

With “QVQLVESGGGLVQAGGSLRLSCAASGRIFQGNAMGWYRQAPRKERELVAAISWRGGRTYYADSVKGRFTISRAYAKNTVYLQMNSLKPEDTAVYYCAAKAYREDEGYWGQGTQVTVSS” the “polyreactivity (PSR sort gate)” value was “high polyreactivity”.

With “QVQLVESGGGLVQAGGSLRLSCAASGFTFGPYDMGWYRQAPGKERELVAVIIGGDSTNYADSVKGRFTISRDNAKNSVYLQMNSLKPEDTAVYYCAADYIDRVGWMDYWGQGTQVTVSS” the “polyreactivity (PSR sort gate)” value was “low polyreactivity”.

With “QVQLVESGGGLVQAGGSLRLSCAASGSIFRSYAMGWYRQAPGKERELVAAISSRSGSTYYADSVKGRFTISRDNAKNTVYLQMISLKPEDTAVYYCAAQHRHSYGYWGQGTQVTVSS” the “polyreactivity (PSR sort gate)” value was “high polyreactivity”.
